This passage reports IC50 and Kd results from patent US20150031755.

The test system of series [1] is T1, rat amylin (L-peptide) (Rattus norvegicus).
T1 sequence: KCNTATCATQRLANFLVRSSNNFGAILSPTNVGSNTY
Briefly: cell_activity. The conditions noted are these: L-RNA, L-dC at 41, 5'-40 kDa PEG; cAMP inhibition, MCF-7 cells; p375 prints human amylin for this value but p377 indicates rat amylin.

The target of series [2] is T2, human alpha-CGRP (L-peptide) (Homo sapiens) (UniProt P06881).
T2 sequence: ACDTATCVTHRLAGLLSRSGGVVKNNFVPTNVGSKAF
The experiment in a line: SPR. As to conditions: L-RNA; 37 C.

“CCGUGCUGUCGGAGACUACUCGUCGAGUAGAAAUAGGUCCCCUCCCACGG [NOX-L41 (226-F2-001-D41-5'-40kDa-PEG)]”: the IC50 in series [1] was 283 nM. Consider “CGUGCUGUCGGAGACUACUCGUCGAGUAGAAAUAGGUCCCCUCCCACG [212-G1-001 (L)]”, for which the Kd in series [2] was 5.12 nM. Still for that read-out and setting: in the case of “CCGUGCUGUCGGAGACUACUCGUCGAGUAGAAAUAGGUCCCCUCCCACGG [226-F2-001 (L)]” it was 2.62 nM.
